Tests used:
[1] = tested on: endogenous retroelements in KAP1 cKO ESCs; test: ATAC-seq chromatin accessibility; assay type: cell-based, mouse; details: exogenous expression in KAP1 cKO ESCs, 2 μg/mL doxycycline, 2 μM 4-OHT 48 h
Experimental: ESCs were maintained under standard conditions on gelatin-coated plates at 37 °C at 5% CO2 in Knockout DMEM (Thermo Fisher) supplemented with NEAA, GlutaMAX, penicillin/streptomycin (Thermo Fisher), 15% ESC-screened fetal bovine serum (Hyclone), 0.1 mM 2-mercaptoethanol (Fisher), and leukemia-inhibitory factor (LIF). Generation of KAP1 cKO ESCs has been described previously. The piggybac transposon system was used to stably integrate transgenic Flag-tagged WT or V488E mutant KAP1 under control of an rtTA promoter (Systems Biosciences, PB-TRE-EGFP-EF1a-rtTA) into the inducible KAP1 cKO ESCs. Exogenous expression of WT or V488E mutant KAP1 was induced with 2 μg/mL doxycycline for 48 h and maintained in doxycycline prior to endogenous KAP1 deletion. KAP1 deletion was induced with 2 μM 4-OHT (Sigma) treatment for 48 h. […]
The modified ATAC-sequencing protocol Omni-ATAC was performed. […] Number of further PCR cycles required was determined using KAPA Library Quantification Kit (KK4854). […]
Quality of datasets was assessed using the FastQC tool. Raw reads were adapter and quality trimmed using Trimgalore. Trimmed reads were aligned to the mouse reference genome (mm10) with Bowtie2. Multimapping reads were randomly assigned. Optical duplicate reads were filtered using Picard (https://broadinstitute.github.io/picard/). Reads which mapped to the mitochondrial genome were removed with Samtools. […]

FL HP1α = test: mass photometry, mixture of FL HP1α and FL KAP1 (Fig. 6g)
Experimental: For MP assays shown in Fig. 6g–I and Supplementary Fig. 12, FL KAP1 and FL HP1α were expressed and purified as described[38],[67]. MP measurements were performed on a Refeyn OneMP instrument (Refeyn Ltd). The calibration was done with a native marker protein standard mix (NativeMark Unstained Protein Standard, Thermo Scientific), which contains proteins ranging from 20 to 1200 kDa. Coverslips (24 × 50 mm, No. 1.5H, Marienfeld) were cleaned by sequential sonication in Milli-Q water, isopropanol and Milli-Q-water, followed by drying with nitrogen. For each acquisition 2 μL of protein solution was applied to 18 μL of buffer (10 mM HEPES pH 7.5, 150 mM NaCl) in a gasket (CultureWellTM Reusable Gasket, Grace Bio-Labs) on a coverslip. To capture the movie, 400 nM HP1α was diluted 10× and 200 nM KAP1 was diluted 10× for a final concentration of 40 nM and 20 nM, respectively. The final molar ratios of HP1α:KAP1 were 1:0, 1:1 and 2:1. Movies were recorded at 999 Hz with an exposure time of 0.95 ms by using the AcquireMP software (Refeyn Ltd). All mass photometry movies were processed and analysed in the DiscoverMP software (Refeyn Ltd).

B1: FL KAP1: full-length KAP1 (KRAB-associated protein 1, TRIM28, TIF1β) (protein)
chain: MAASAAAASAAAASAASGSPGPGEGSAGGEKRSTAPSAAASASASAAASSPAGGGAEALELLEHCGVCRERLRPEREPRLLPCLHSACSACLGPAAPAAANSSGDGGAAGDGTVVDCPVCKQQCFSKDIVENYFMRDSGSKAATDAQDANQCCTSCEDNAPATSYCVECSEPLCETCVEAHQRVKYTKDHTVRSTGPAKSRDGERTVYCNVHKHEPLVLFCESCDTLTCRDCQLNAHKDHQYQFLEDAVRNQRKLLASLVKRLGDKHATLQKSTKEVRSSIRQVSDVQKRVQVDVKMAILQIMKELNKRGRVLVNDAQKVTEGQQERLERQHWTMTKIQKHQEHILRFASWALESDNNTALLLSKKLIYFQLHRALKMIVDPVEPHGEMKFQWDLNAWTKSAEAFGKIVAERPGTNSTGPAPMAPPRAPGPLSKQGSGSSQPMEVQEGYGFGSGDDPYSSAEPHVSGVKRSRSGEGEVSGLMRKVPRVSLERLDLDLTADSQPPVFKVFPGSTTEDYNLIVIERGAAAAATGQPGTAPAGTPGAPPLAGMAIVKEEETEAAIGAPPTATEGPETKPVLMALAEGPGAEGPRLASPSGSTSSGLEVVAPEGTSAPGGGPGTLDDSATICRVCQKPGDLVMCNQCEFCFHLDCHLPALQDVPGEEWSCSLCHVLPDLKEEDGSLSLDGADSTGVVAKLSPANQRKCERVLLALFCHEPCRPLHQLATDSTFSLDQPGGTLDLTLIRARLQEKLSPPYSSPQEFAQDVGRMFKQFNKLTEDKADVQSIIGLQRFFETRMNEAFGDTKFSAVLVEPPPMSLPGAGLSSQELSGGPGDGP
restoration of closed chromatin at IAPEz, MERVK10C and ETn [1]: able to partially restore closed chromatin at IAPEz, MERVK10C and ETn elements | effect on oligomerization of HP1α (FL HP1α): Oligomerization of HP1α was further increased

Reference: publication PMC12126490, “The HP1 box of KAP1 organizes HP1α for silencing of endogenous retroviral elements in embryonic stem cells” (Nature Communications, 2025)
